Test results: article PMC3836179 (Nature chemical biology, 2013)

B1: Phd^52-73 (domain or fragment)
chain: LDAEFASLFDTLDSTNKELVNR
B2: antitoxin domain of Phd (residues 52-73) (peptide)
chain: LDAEFASLFDTLDSTNKELVNR

Tests used:
Doc = target: T1, Doc (UniProt Q06259 1-126); assay: ITC
T1 sequence: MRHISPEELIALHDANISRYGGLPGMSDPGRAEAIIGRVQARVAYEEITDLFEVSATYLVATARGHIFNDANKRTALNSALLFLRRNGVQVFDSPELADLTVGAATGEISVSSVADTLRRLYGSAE

[1] = target: T2, Doc (wild type), toxin of the doc/phd toxin/antitoxin module (UniProt Q06259 1-126); assay: ITC
T2 sequence: T1 sequence

Row | Binder | binding result (Doc) | binding result [1]
1 | B1 | binds | 
2 | B2 |  | binds
